In US12065673B2, “Method for obtaining human brown/beige adipocytes” (ETABLISSEMENT FRANCAIS DU SANG, priority 2015, dated 2024):

Columns and labels:
Assay type in all cases: cell-based, human
[1] = system: adipogenic progenitor cells (pAdSCs); test: Adipogenic differentiation after BMP induction (QRT-PCR adipocyte markers, Oil red O); conditions: 50 ng/mL BMP for 3 days, recovered at day 10
Method: Total RNA was extracted from ASCs and purified by AllPrep DNA/RNA/Protein kit (Qiagen, Courtaboeuf, France) and dosed by nanodrop (Thermo Fischer, Courtaboeuf, France). RNA purity and integrity was checked using the Experion™ RNA Std Sens Reagents on the Experion automatisated system (Biorad). […] The reverse transcription (RT) was performed on 1 μg RNA by using high capacity cDNA reverse transcription kit (Applied Biosystem ™) and random hexamers in a final volume of 20 μL. The oligonucleotides for each target of interest, designed by using Primer Express software (PerkinElmer Life Sciences, Waltham, Mass.) were used (forward and reverse) and listed in table1. Quantitative PCR was performed on diluted cDNA (equivalent to 25 ng of starting purified RNA) using SSoFast EvaGreen Supermix (Biorad, Marnes-la-Coquette, France) with 500 nM of forward and reverse primers in a total volume of 20 μL on a CFX™ Real Time System (Biorad) following: 95° C., 3 minutes and 40 cycles of denaturation (95° C., 10 seconds) and primers hybridation and amplification (60° C., 30 seconds). […] Melt curves and appropriate No RT control were used to validate amplification specificity. Data were analysed on Bio-Rad CFX manager (threshold=0.2), exported to DataAssist Software v3.0 (Applied Biosystems). […] All real-time PCR reactions for the individual samples were performed in duplicate. […]

[2] = system: standard ASCs; test: Osteoblastic marker expression after BMP induction; conditions: 50 ng/mL BMP for 3 days
[3] = system: adipogenic progenitor cells (pAdSCs); test: Brown/beige marker UCP1 by western blotting and immuno-fluorescence; conditions: adipocytes from adipogenic progenitor cells; for UCP1 induction at protein level: western blotting and immuno-fluorescence
Method: Proteins which were extracted by AllPrep DNA/RNA/Protein kit (Qiagen, Courtaboeuf, France) were subjected to the Western blot analysis. Briefly, eluate from DNA and RNA retention columns was precipitated by APP buffer (v/v), centrifuged (10,000 g, 10 min), washed by ethanol 70%, and air dried. Pellets were dissolved in ALO buffer (Qiagen, Courtaboeuf, France), sonicated and protein content was determined by Bicinchoninic Acid method (Pierce). After denaturation (95° C., 5 min), proteins were separated by 12% Tris-glycine-SDS polyacrylamide gel electrophoresis, and subsequently transferred to polyvinylidene difluoride membrane (PVDF). The proteins were detected with Rabbit polyclonal Ab anti-human SOX2 (ab97959; Abcam, Cambridge, UK), anti-human OCT4 (ab19857, Abcam), anti-human NANOG (SC33759; SantaCruz, Dallas, Tex.), anti-human PRDM16, anti-human UCP1, or with Mouse monoclonal Ab anti-human PPARG, anti-βActin and anti-RUNX2 (Abcam) antibodies. […] The Pactin was used as internal positive control (Sigma).
After expansion, ASC- or EGM-2-derived cells were also cultured in chamber slides and after becoming confluent, cells were induced to differentiate into brown/beige adipocytes. After 7 days, the cells were stained with anti-UCP1 antibody (Alpha Diagnostic, San-Antonio, Tex.), and then with Alexa488-labeled goat anti-mouse secondary antibody (Invitrogen). The staining was read by using confocal microscope (Zeiss 510, Zeiss, Oberkochen, Germany).

[4] = system: EGM2-derived Bone Marrow-MSCs; test: BMP7-induced differentiation of BM-MSCs (QRT-PCR)
[5] = system: MSCs cultured in standard conditions; test: BMP7-induced differentiation of BM-MSCs cultured in standard conditions; conditions: BMP7 treatment

Molecule | adipocyte generation after BMP treatment [1] | osteoblastic marker expression after BMP treatment [2] | UCP1 induction at protein level [3] | UCP1 induction, BMP7 compared with BMP4 [3] | expression of adipogenic and brown/beige genes (UCP1, CIDEA) [4] | differentiation outcome of MSCs [5]
Bone Morphogenetic Protein 4 (protein, UniProt P12644 293-408, looked up, recombinant human Bone Morphogenetic Protein 4 (Miltenyi), adipogenic/browning agent) Bone morphogenetic protein 4: SPKHHSQRARKKNKNCRRHSLYVDFSDVGWNDWIVAPPGYQAFYCHGDCPFPLADHLNSTNHAIVQTLVNSVNSSIPKACCVPTELSAISMLYLDEYDKVVLKNYQEMVVEGCGCR | generated clearly defined adipocytes | expressed high levels of osteoblastic markers | strongly induced |  |  | 
BMP7: recombinant human BMP7 (RnD system's), pro-beige/brown adipocyte factor (protein, UniProt P18075 293-431, looked up) Bone morphogenetic protein 7: STGSKQRSQNRSKTPKNQEALRMANVAENSSSDQRQACKKHELYVSFRDLGWQDWIIAPEGYAAYYCEGECAFPLNSYMNATNHAIVQTLVHFINPETVPKPCCAPTQLNAISVLYFDDSSNVILKKYRNMVVRACGCH | generated clearly defined adipocytes | expressed high levels of osteoblastic markers | strongly induced | more potent and reliable | triggered expressions of adipogenic and UCP1, CIDEA genes | differentiate into osteoblastic cells solely
